We go through one molecule from patent US20170096486A1, “AGENTS INHIBITING GRANULIN FOR TREATMENT OF CANCER” (priority 2014, published 2017).

For the assay, the system named is MCF7 cells. The assay is described as follows: Proliferation of MCF7 cells after peptide treatment. Format: cell-based. The note with it: MCF7 cells (FIG. 5).

B1: HB-EGF: peptide mimetic HB-EGF (R&D Systems 259-HE-050) (protein, UniProt Q99075 63-148, looked up)
Heparin-binding EGF-like …: DLQEADLDLLRVTLSSKPQALATPNKEEHGKRKKKGKGLGKKRDPCLRKYKDFCIHGECKYVKELRAPSCICHPGYHGERCHGLSL
For the molecule B1, the “proliferation after peptide treatment” value was “does not affect proliferation”.
